Reference: paper PMC10200994

B1: STAT1 (unphosphorylated, wild-type), fluorophore fusion [not stated] / STAT1 (unphosphorylated, wild-type), fluorophore fusion [not stated] (parent)
chain 1: MSQWYELQQLDSKFLEQVHQLYDDSFPMEIRQYLAQWLEKQDWEHAANDVSFATIRFHDLLSQLDDQYSRFSLENNFLLQHNIRKSKRNLQDNFQEDPIQMSMIIYSCLKEERKILENAQRFNQAQSGNIQSTVMLDKQKELDSKVRNVKDKVMCIEHEIKSLEDLQDEYDFKCKTLQNREHETNGVAKSDQKQEQLLLKKMYLMLDNKRKEVVHKIIELLNVTELTQNALINDELVEWKRRQQSACIGGPPNACLDQLQNWFTIVAESLQQVRQQLKKLEELEQKYTYEHDPITKNKQVLWDRTFSLFQQLIQSSFVVERQPCMPTHPQRPLVLKTGVQFTVKLRLLVKLQELNYNLKVKVLFDKDVNERNTVKGFRKFNILGTHTKVMNMEESTNGSLAAEFRHLQLKEQKNAGTRTNEGPLIVTEELHSLSFETQLCQPGLVIDLETTSLPVVVISNVSQLPSGWASILWYNMLVAEPRNLSFFLTPPCARWAQLSEVLSWQFSSVTKRGLNVDQLNMLGEKLLGPNASPDGLIPWTRFCKENINDKNFPFWLWIESILELIKKHLLPLWNDGCIMGFISKERERALLKDQQPGTFLLRFSESSREGAITFTWVERSQNGGEPDFHAVEPYTKKELSAVTFPDIIRNYKVMAAENIPENPLKYLYPNIDKDHAFGKYYSRPKEAPEPMELDGPKGTGYIKTELISVSEVHPSRLQTTDNLLPMSPEEFDEVSRIVGSVEFDSMMNTV
chain 2: B1 chain 1
B2: STAT5B (unphosphorylated, wild-type), fluorophore fusion [not stated] / STAT5B (unphosphorylated, wild-type), fluorophore fusion [not stated] (parent)
chain 1: MAVWIQAQQLQGEALHQMQALYGQHFPIEVRHYLSQWIESQAWDSVDLDNPQENIKATQLLEGLVQELQKKAEHQVGEDGFLLKIKLGHYATQLQNTYDRCPMELVRCIRHILYNEQRLVREANNGSSPAGSLADAMSQKHLQINQTFEELRLVTQDTENELKKLQQTQEYFIIQYQESLRIQAQFGPLAQLSPQERLSRETALQQKQVSLEAWLQREAQTLQQYRVELAEKHQKTLQLLRKQQTIILDDELIQWKRRQQLAGNGGPPEGSLDVLQSWCEKLAEIIWQNRQQIRRAEHLCQQLPIPGPVEEMLAEVNATITDIISALVTSTFIIEKQPPQVLKTQTKFAATVRLLVGGKLNVHMNPPQVKATIISEQQAKSLLKNENTRNDYSGEILNNCCVMEYHQATGTLSAHFRNMSLKRIKRSDRRGAESVTEEKFTILFESQFSVGGNELVFQVKTLSLPVVVIVHGSQDNNATATVLWDNAFAEPGRVPFAVPDKVLWPQLCEALNMKFKAEVQSNRGLTKENLVFLAQKLFNNSSSHLEDYSGLSVSWSQFNRENLPGRNYTFWQWFDGVMEVLKKHLKPHWNDGAILGFVNKQQAHDLLINKPDGTFLLRFSDSEIGGITIAWKFDSQERMFWNLMPFTTRDFSIRSLADRLGDLNYLIYVFPDRPKDEVYSKYYTPVPCESATAKAVDGYVKPQIKQVVPEFVNASADAGGGSATYMDQAPSPAVCPQAHYNMYPQNPDSVLDTDGDFDLEDTMDVARRVEELLGRPMDSQWIPHAQS
chain 2: B2 chain 1
B3: STAT5A (unphosphorylated, wild-type), fluorophore fusion [not stated] / STAT5A (unphosphorylated, wild-type), fluorophore fusion [not stated] (parent)
chain 1: MAGWIQAQQLQGDALRQMQVLYGQHFPIEVRHYLAQWIESQPWDAIDLDNPQDRAQATQLLEGLVQELQKKAEHQVGEDGFLLKIKLGHYATQLQKTYDRCPLELVRCIRHILYNEQRLVREANNCSSPAGILVDAMSQKHLQINQTFEELRLVTQDTENELKKLQQTQEYFIIQYQESLRIQAQFAQLAQLSPQERLSRETALQQKQVSLEAWLQREAQTLQQYRVELAEKHQKTLQLLRKQQTIILDDELIQWKRRQQLAGNGGPPEGSLDVLQSWCEKLAEIIWQNRQQIRRAEHLCQQLPIPGPVEEMLAEVNATITDIISALVTSTFIIEKQPPQVLKTQTKFAATVRLLVGGKLNVHMNPPQVKATIISEQQAKSLLKNENTRNECSGEILNNCCVMEYHQATGTLSAHFRNMSLKRIKRADRRGAESVTEEKFTVLFESQFSVGSNELVFQVKTLSLPVVVIVHGSQDHNATATVLWDNAFAEPGRVPFAVPDKVLWPQLCEALNMKFKAEVQSNRGLTKENLVFLAQKLFNNSSSHLEDYSGLSVSWSQFNRENLPGWNYTFWQWFDGVMEVLKKHHKPHWNDGAILGFVNKQQAHDLLINKPDGTFLLRFSDSEIGGITIAWKFDSPERNLWNLKPFTTRDFSIRSLADRLGDLSYLIYVFPDRPKDEVFSKYYTPVLAKAVDGYVKPQIKQVVPEFVNASADAGGSSATYMDQAPSPAVCPQAPYNMYPQNPDHVLDQDGEFDLDETMDVARHVEELLRRPMDSLDSRLSPPAGLFTSARGSLS
chain 2: B3 chain 1
B4: STAT4 (unphosphorylated, wild-type), fluorophore fusion [not stated] / STAT4 (unphosphorylated, wild-type), fluorophore fusion [not stated] (parent)
chain 1: MSQWNQVQQLEIKFLEQVDQFYDDNFPMEIRHLLAQWIENQDWEAASNNETMATILLQNLLIQLDEQLGRVSKEKNLLLIHNLKRIRKVLQGKFHGNPMHVAVVISNCLREERRILAAANMPVQGPLEKSLQSSSVSERQRNVEHKVAAIKNSVQMTEQDTKYLEDLQDEFDYRYKTIQTMDQSDKNSAMVNQEVLTLQEMLNSLDFKRKEALSKMTQIIHETDLLMNTMLIEELQDWKRRQQIACIGGPLHNGLDQLQNCFTLLAESLFQLRRQLEKLEEQSTKMTYEGDPIPMQRTHMLERVTFLIYNLFKNSFVVERQPCMPTHPQRPLVLKTLIQFTVKLRLLIKLPELNYQVKVKASIDKNVSTLSNRRFVLCGTNVKAMSIEESSNGSLSVEFRHLQPKEMKSSAGGKGNEGCHMVTEELHSITFETQICLYGLTIDLETSSLPVVMISNVSQLPNAWASIIWYNVSTNDSQNLVFFNNPPPATLSQLLEVMSWQFSSYVGRGLNSDQLHMLAEKLTVQSSYSDGHLTWAKFCKEHLPGKSFTFWTWLEAILDLIKKHILPLWIDGYVMGFVSKEKERLLLKDKMPGTFLLRFSESHLGGITFTWVDHSESGEVRFHSVEPYNKGRLSALPFADILRDYKVIMAENIPENPLKYLYPDIPKDKAFGKHYSSQPCEVSRPTERGDKGYVPSVFIPISTIRSDSTEPHSPSDLLPMSPSVYAVLRENLSPTTIETAMKSPYSAE
chain 2: B4 chain 1

Variants of: B1
Experiment: co-localization assay (quantitative fluorescence microscopy in HeLa cells)
Settings: with STAT1 (unphosphorylated, wild-type), bait S1-NLS, test S1-F77A, 20 cells (parent 12 cells), parent: 0.98

How did the screen value turn out when chain 1 F77A was run?
Its screen value is 0.64.

Variants of: B2
Experiment: as above
Settings: with STAT5B (unphosphorylated, wild-type), bait S5B-NES, test S5B-L82A, 32 cells (parent 10 cells), parent: 0.97

How did the screen value turn out when chain 1 L82A was run?
The screen value was 0.63.

Variants of: B3
Experiment: as above
Settings: with STAT5A (unphosphorylated, wild-type), bait S5A-NES, test S5A-L82A, 19 cells (parent 13 cells), parent: 0.97

Which screen value does the source give for chain 1 L82A here?
Its screen value is 0.54.

Variants of: B4
Experiment: as above
Settings: with STAT4 (unphosphorylated, wild-type), bait S4-NES, test S4-L78S, 19 cells (parent 14 cells), parent: 0.95

chain 1 L78S was tested. Which screen value did it give?
Its screen value is 0.68.
